Measurements as given in patent US20250289899A1.

Experiments:
[1] = target: recombinant His-tagged human FcγRIIIa (176-Val [V]) (human) (UniProt P08637); test: SPR (Biacore), His-tagged FcγRIIIa-V captured on anti-His chip, antibody in solution, resonance units against antibody concentration
[2] = target: recombinant His-tagged human FcγRIa (human) (UniProt P12314); test: SPR (Biacore), His-tagged FcγRIa captured on anti-His chip, antibody in solution, resonance units against antibody concentration
Sequence of recombinant His-tagged human FcγRIa (human) (P12314 16-288 limits assumed): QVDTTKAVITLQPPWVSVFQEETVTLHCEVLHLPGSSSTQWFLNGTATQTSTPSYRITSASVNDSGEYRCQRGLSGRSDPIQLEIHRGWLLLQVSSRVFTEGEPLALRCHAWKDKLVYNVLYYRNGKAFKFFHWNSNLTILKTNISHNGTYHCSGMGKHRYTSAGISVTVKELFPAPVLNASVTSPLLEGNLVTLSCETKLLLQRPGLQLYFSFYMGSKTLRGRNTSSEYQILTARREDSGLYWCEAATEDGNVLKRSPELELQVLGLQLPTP

Sequence of recombinant His-tagged human FcγRIIIa (176-Val [V]) (human) (P08637 17-208 F176V limits assumed): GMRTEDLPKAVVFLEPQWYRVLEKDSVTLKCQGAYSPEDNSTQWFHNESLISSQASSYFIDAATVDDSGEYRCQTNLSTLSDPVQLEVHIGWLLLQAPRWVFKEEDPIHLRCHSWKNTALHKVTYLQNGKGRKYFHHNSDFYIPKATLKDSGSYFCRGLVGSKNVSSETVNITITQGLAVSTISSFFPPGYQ

Substance “IgG1-b12 (anti-HIV gp120 antibody, wild-type IgG1 Fc)” has an EC50 (read off the curve) [1] of 400 nM and an EC50 (read off the curve) [2] of 60 nM.
